We go through two molecules from patent US20020098527A1 (Kyowa Kirin, published 2002).

The target in assay [1] is T1, hCCR4 partial peptide (Compound 1) (human, conjugated with thyroglobulin (THY) using SMCC as the crosslinking agent).
T1 construct: Synthetic peptide, coated on ELISA plates as a THY conjugate
T1 peptide: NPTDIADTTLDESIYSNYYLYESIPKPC
The assay can be described thus: ELISA on plate-coated hCCR4 partial peptide conjugate.

In assay [2] the target is T2, human CC chemokine receptor 4 (human CCR4) (human, UniProt P51679 1-360).
T2 construct: Expressed on mouse EL-4 cells transfected with hCCR4 DNA (CCR4/EL-4); also called hCCR4; K5-5
T2 sequence: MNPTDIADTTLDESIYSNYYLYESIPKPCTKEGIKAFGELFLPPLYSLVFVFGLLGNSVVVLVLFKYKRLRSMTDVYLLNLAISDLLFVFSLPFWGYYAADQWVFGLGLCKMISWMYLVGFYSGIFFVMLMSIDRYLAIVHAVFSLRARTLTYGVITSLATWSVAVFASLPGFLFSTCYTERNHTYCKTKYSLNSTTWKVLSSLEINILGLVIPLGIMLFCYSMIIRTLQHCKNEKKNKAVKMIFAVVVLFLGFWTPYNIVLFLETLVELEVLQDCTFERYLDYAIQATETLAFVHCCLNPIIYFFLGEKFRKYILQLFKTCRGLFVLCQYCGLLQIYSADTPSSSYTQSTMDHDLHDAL
The assay can be described thus: flow cytometry (immunofluorescent method) on hCCR4-high-expressing EL-4 cells. On the procedure:
They were selected by an immunofluorescent method using KM2160 prepared in Example 1(5). Into a 96 well U shape plate, 2×10⁵ cells of each of selected several tens of the gene-introduced clones was dispensed. KM2160 labeled with biotin by a known method (Enzyme Antibody Method, published by Gakusai Kikaku) was diluted to 5 μg/ml with a buffer for FACS (1% BSA-PBS, 0.02% EDTA, 0.05% NaN₃, pH 7.4), human IgG (manufactured by Welfide) was diluted to 3.75 mg/ml to prevent nonspecific staining, each of the thus diluted antibody solution was dispensed at 200 μl/well, and the mixture was allowed to react in ice for 30 minutes. As a negative control, biotinylated anti-IL-5R antibody (WO 97/10354) was used at the same concentration. After washing twice with 200 μl/well of the buffer, streptoavidin-PE (manufactured by Becton Dickinson Japan) was dispensed at 20 μl/well. Thirty minutes after the reaction in ice in the dark, the cells were washed three times with 200 μl/well and finally suspended to 500 μl, and the fluorescence intensity was measured by a flow cytometer to select one cell line having the highest fluorescence intensity.
Reactivity of the purified anti-CCR4 chimeric antibody KM2760 with the hCCR4-high-expressing cell (hereinafter referred to as “CCR4/EL-4”) produced in 3(4) of Example 2 was measured in the same manner as in 3(4) of Example 2.
On the technique in general: Flow cytometry measures light scatter and fluorescence of single cells or particles in a stream.

In assay [3] the target is T1, hCCR4 partial peptide (Compound 1). The assay can be described thus: ELISA, THY-peptide conjugate coated at 10 µg/ml, antibody concentration varied. As for the experimental part:
(§1) The conjugate prepared in the above manner was dispensed at 10 μg/ml and 50 μl/well into a 96 well plate for EIA (manufactured by Greiner) and adhered thereto by incubating it at 4° C. overnight. After washing with PBS, 1% BSA-containing PBS (hereinafter referred to as “1% BSA-PBS”) was added at 100 μl/well, and the mixture was allowed to react at room temperature for 1 hour to block the remaining active groups. After removing 1% BSA-PBS, diluted solutions of a transformant culture supernatant, a purified mouse antibody or a purified human chimeric antibody was dispensed at 50 μl/well, and the mixture was allowed to react at room temperature for 1 hour. […] After the reaction, each well was washed with Tween-PBS, ABTS solution (a solution prepared by dissolving 0.55 g of 2,2′-azino-bis(3-ethylbenzothiazoline-6-sulfonic acid)ammonium in 1 liter of 0.1 M citrate buffer (pH 4.2), and adding 1 μl/ml of hydrogen peroxide just before use) was dispensed at 50 μl/well for color developing, and the absorbance at 415 nm (hereinafter referred to as “OD₄₁₅”) was measured.
(§2) Reactivity of the purified anti-CCR4 chimeric antibody KM2760 to human CCR4 and mouse CCR4 was measured by ELISA shown in 2(3) of Example 2. […]

Assay [4] has as its target T3, mCCR4 partial peptide (Compound 2) (mouse, conjugated with thyroglobulin (THY) using SMCC as the crosslinking agent).
T3 construct: Synthetic peptide, coated on ELISA plates as a THY conjugate
T3 peptide: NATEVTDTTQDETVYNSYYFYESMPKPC
The assay is described as above. As for the experimental part:
as §1, §2

B1: mouse anti-CCR4 monoclonal antibody KM2160 (antibody, mouse IgG1, V domains shown)
VH: EVQLVESGGDLMKPGGSLKISCAASGFIFSNYGMSWVRQTPDMRLEWVATISSASTYSYYPDSVKGRFTISRDNAENSLYLQMNSLRSEDTGIYYCGRHSDGNFAFGYWGRGTLVTVSA
VL: DVLMTQTPLSLPVSLGDQASISCRSSRNIVHINGDTYLEWYLQRPGQSPKLLIYKVSNRFSGVPDRFSGSGSGTDFTLKISRVEAEDLGVYYCFQGSLLPWTFGGGTRLEIRR
notes: Mouse IgG1 class with a kappa L chain, produced by hybridoma KM2160; also called anti-CCR4 mouse antibody KM2160
For the molecule B1, the binding result in assay [1] is “binds”.

B2: anti-CCR4 chimeric antibody KM2760 (antibody, V domains shown)
VH: B1 VH
VL: B1 VL
notes: Human chimeric antibody: CH is human IgG1 subclass and CL is human kappa class (vector pKANTEX93); It was expressed in rat YB2/0 cells; It was used biotinylated in the flow cytometry assays
In the case of B2, the binding result in assay [2], in assay [3] and in assay [4] was “binds” throughout.
